From patent US6191256A, “Recombinant factor VIII binding peptides” (Bayer Corporation, priority 1998, dated 2001)

What was measured:
[1] = target: T1, rFVIII (Homo sapiens, UniProt P00451); test: rFVIII activity recovery from peptide columns by chromogenic substrate assay (COATEST); assay type: biochemical; conditions: for 0.5M CaCl2 IU / 2% acetic acid % total / 2% acetic acid IU / Flow through % total / Total IU / 0.5M CaCl2 % total / Flow through IU: Table 7; for 0.5M CaCl2 % total: activity recovery; for Flow through IU: rFVIII activity in fraction; for Activity results % total: Table 9, 0.5M CaCl2 fraction
Protocol: (§1) Immunoassay on rFVIII using a sandwich capture ELISA for the light chain and activity assay using a chromogenic substrate (COATEST Factor VIII kit from diaPharma, Franklin, Ohio) were performed on a BIOMEK® automated liquid handling system from Beckman Instruments (Brea, Calif.). The monoclonal antibody for rFVIII light chain (known as C7F7), the ELISA assay standard (lot A70K019), and the control for the activity assay (lot A70A001 @ 140 IU/mL) were from the Bayer Corporation (Berkeley, Calif.). The standard for the activity assay was at 11.2 IU/mL (Bayer, Clayton, N.C.), calibrated against the MEGA 1 standard, which is a working standard used by American manufacturers for measuring factor VIII activity (21).
(§2) Additional confirmatory binding assay and performance of the discovered binding peptides in terms of total rFVIII and activity recovery was performed in a column chromatographic format on a microbore HPLC. The resins were packed into 0.4×5 cm columns (Thomson, Springfield, Va.) and tested on the MICHROM HPLC system (Michrom BioResources, Auburn, Calif.). The elution program for the trials utilized the following method. The column was pre-equilibrated with equilibration buffer (as above). A 1 mL aliquot of 1:10 PPF followed by 1 mL of rFVIII (10,000 ng) in 1:10 PPF were injected and allowed sufficient time to flow through the column using equilibration buffer. The column was then washed with step elutions of 0.5 M and 1.0 M CaCl2 in equilibration buffer. The column was exposed to equilibration buffer. Remaining protein was eluted with 2% by volume glacial acetic acid in water. Columns were kept at 5° C. during the chromatographic runs. For each 1 mL injection (equilibration buffer, 1:10 PPF and 10,000 ng rFVIII in 1:10 PPF), the chromatographic cycle was run for 45 minutes (injection, flow through, 0.5 M CaCl2, 1.0 M CaCl2, equilibration buffer, 2% acetic acid, equilibration buffer).
(§3) A Gilson FC204 fraction collector at the HPLC outlet collected individual eluates for further analysis. Each collection tube had 100 μL hSA added to it to stabilize the rFVIII. Fractions collected from the 2% acetic acid eluates were neutralized with 2 M Tris, pH 10.5 to bring the pH to neutrality. The fractions were analyzed for total protein by the integration of the absorbance at 280 nm, for rFVIII by immunoassay (sandwich capture ELISA), and for rFVIII activity by a chromogenic substrate assay.
Tables 7 and 8 list the sequences for which activity recovery was determined by a chromogenic substrate assay (COASTEST kit, diaPharma, Franklin, Ohio). Chromatographc conditions are the same as described above for the results from Tables 5 and 6. It can be

[2] = target: T1, rFVIII; test: confirmatory binding assay in filtration plate format using 14C-rFVIII; conditions: for Total dpm / 0.5M CaCl2 % total / 2% acetic acid % total / 2% acetic acid dpm / 0.5M CaCl2 dpm / beads % total / beads dpm: Table 3; for Total dpm / beads % total / beads dpm: 14C-rFVIII 20 nM; for 0.5M CaCl2 % total / 2% acetic acid % total / 2% acetic acid dpm / 0.5M CaCl2 dpm: 14C-rFVIII 20 nM in PPF, 5 mg beads; for 0.5M CaCl2 dpm: 3.0 × 10^15 DPM/mole, 5° C.; for beads % total / beads dpm: remaining on beads after washes
Protocol: Confirmatory binding assays were performed in a filtration plate format using individual peptide sequences synthesized directly onto the TOYOPEARL AF amino 650 M resin, at a final substitution density of 0.1 mmole/g resin. A slurry of each individual peptide sequence was prepared using deionized water. A 100 μL volume of beads (corresponding to 5 mg) was loaded into each well of the filtration plate (MULTISCREEN Assay System, Millipore, Bedford, Mass.), in triplicate for each peptide sequence. Beads were washed with 20% ethanol and incubated overnight with equilibration buffer (20 mM imidazole, 10 mM
CaCl2, 0.105 M NaCl, pH 6.9). A 100 μL aliquot of ^14 C-rFVIII diluted in neat PPF to a final concentration of 20-30 nM was loaded into each well and incubated for 1 hour at 5° C. Filtrate (unbound ^14 C-rFVIII) was collected into a microtiter plate and transferred to liquid scintillation vials for dpm counting. Beads were washed sequentially with: 100 μL of equilibration buffer for 15 minutes, 200 μL of 0.5 M CaCl2 (in equilibration buffer), 200 μL of 1.0 M CaCl2 (in equilibration buffer), and 200 uL of 2% by volume glacial acetic acid in water, for 1 hour each at 5° C. Scintillation counting on the unbound ^14 C-rFVIII (plus equilibration buffer wash), salt and acid washes, as well as on the beads was then performed and the overall mass balance calculated.
Beads presenting the appropriate peptide sequence on the surface were placed in the filtration plate wells and incubated sequentially with equilibration buffer, ^14 C-rFVIII in PPF, equilibration buffer, 0.5 M CaCl2 wash, 1.0 M CaCl2 wash and 2% acetic acid wash. After each incubation, filtrate was collected in microtiter plates, and dpm counted on each
In Table 3, the ^14 C-rFVIII was loaded at 20 nM (in PPF) and the radiolabeling yield was at 3.0×10^15 dpm/mole. In Table 4, the ^14 C-rFVIII was loaded at 30 nM (in PPF) and the radiolabeling yield was at 5.0×10^15 dpm/mole.

[3] = target: T1, rFVIII; test: column format binding assay, rFVIII mass per fraction by sandwich capture ELISA for the light chain; conditions: for 0.5M CaCl2 ng / 0.5M CaCl2 % total / 2% acetic acid % total / 2% acetic acid ng / Flow through % total / Total ng / Flow through ng: Table 5; for Flow through ng: 10,000 ng rFVIII in 1:10 PPF injected, 5° C.; for ELISA results % total: Table 9, 0.5M CaCl2 fraction
Protocol: as §1, §2, §3
Tables 5 and 6 present the results from the additional confirmatory binding assays using the column format. The chromatography method was run by injecting the samples at a flow rate of 865 μL/min (413 cm/hr). In order to provide a 10 minute residence time of sample in the column the flow was decreased to 17 μL/min (10 cm/hr) upon injection.
Following the incubation, the flow was set at 865 μL/min (413 cm/hr) for the step clutions of 0.5 M CaCl2, 1.0 M CaCl2, and 2% acetic acid. Results are expressed in terms of the total mass of rFVIII in each fraction, as determined by the sandwich capture ELISA assay for the rFVIII light chain. […] A control using a non-binding peptide sequence (IGF) is also shown for comparison--in this case, 95% of the rFVIII loaded to the column was collected in the flow through fraction. Additional controls with no

T1 sequence (P00451 20-2351): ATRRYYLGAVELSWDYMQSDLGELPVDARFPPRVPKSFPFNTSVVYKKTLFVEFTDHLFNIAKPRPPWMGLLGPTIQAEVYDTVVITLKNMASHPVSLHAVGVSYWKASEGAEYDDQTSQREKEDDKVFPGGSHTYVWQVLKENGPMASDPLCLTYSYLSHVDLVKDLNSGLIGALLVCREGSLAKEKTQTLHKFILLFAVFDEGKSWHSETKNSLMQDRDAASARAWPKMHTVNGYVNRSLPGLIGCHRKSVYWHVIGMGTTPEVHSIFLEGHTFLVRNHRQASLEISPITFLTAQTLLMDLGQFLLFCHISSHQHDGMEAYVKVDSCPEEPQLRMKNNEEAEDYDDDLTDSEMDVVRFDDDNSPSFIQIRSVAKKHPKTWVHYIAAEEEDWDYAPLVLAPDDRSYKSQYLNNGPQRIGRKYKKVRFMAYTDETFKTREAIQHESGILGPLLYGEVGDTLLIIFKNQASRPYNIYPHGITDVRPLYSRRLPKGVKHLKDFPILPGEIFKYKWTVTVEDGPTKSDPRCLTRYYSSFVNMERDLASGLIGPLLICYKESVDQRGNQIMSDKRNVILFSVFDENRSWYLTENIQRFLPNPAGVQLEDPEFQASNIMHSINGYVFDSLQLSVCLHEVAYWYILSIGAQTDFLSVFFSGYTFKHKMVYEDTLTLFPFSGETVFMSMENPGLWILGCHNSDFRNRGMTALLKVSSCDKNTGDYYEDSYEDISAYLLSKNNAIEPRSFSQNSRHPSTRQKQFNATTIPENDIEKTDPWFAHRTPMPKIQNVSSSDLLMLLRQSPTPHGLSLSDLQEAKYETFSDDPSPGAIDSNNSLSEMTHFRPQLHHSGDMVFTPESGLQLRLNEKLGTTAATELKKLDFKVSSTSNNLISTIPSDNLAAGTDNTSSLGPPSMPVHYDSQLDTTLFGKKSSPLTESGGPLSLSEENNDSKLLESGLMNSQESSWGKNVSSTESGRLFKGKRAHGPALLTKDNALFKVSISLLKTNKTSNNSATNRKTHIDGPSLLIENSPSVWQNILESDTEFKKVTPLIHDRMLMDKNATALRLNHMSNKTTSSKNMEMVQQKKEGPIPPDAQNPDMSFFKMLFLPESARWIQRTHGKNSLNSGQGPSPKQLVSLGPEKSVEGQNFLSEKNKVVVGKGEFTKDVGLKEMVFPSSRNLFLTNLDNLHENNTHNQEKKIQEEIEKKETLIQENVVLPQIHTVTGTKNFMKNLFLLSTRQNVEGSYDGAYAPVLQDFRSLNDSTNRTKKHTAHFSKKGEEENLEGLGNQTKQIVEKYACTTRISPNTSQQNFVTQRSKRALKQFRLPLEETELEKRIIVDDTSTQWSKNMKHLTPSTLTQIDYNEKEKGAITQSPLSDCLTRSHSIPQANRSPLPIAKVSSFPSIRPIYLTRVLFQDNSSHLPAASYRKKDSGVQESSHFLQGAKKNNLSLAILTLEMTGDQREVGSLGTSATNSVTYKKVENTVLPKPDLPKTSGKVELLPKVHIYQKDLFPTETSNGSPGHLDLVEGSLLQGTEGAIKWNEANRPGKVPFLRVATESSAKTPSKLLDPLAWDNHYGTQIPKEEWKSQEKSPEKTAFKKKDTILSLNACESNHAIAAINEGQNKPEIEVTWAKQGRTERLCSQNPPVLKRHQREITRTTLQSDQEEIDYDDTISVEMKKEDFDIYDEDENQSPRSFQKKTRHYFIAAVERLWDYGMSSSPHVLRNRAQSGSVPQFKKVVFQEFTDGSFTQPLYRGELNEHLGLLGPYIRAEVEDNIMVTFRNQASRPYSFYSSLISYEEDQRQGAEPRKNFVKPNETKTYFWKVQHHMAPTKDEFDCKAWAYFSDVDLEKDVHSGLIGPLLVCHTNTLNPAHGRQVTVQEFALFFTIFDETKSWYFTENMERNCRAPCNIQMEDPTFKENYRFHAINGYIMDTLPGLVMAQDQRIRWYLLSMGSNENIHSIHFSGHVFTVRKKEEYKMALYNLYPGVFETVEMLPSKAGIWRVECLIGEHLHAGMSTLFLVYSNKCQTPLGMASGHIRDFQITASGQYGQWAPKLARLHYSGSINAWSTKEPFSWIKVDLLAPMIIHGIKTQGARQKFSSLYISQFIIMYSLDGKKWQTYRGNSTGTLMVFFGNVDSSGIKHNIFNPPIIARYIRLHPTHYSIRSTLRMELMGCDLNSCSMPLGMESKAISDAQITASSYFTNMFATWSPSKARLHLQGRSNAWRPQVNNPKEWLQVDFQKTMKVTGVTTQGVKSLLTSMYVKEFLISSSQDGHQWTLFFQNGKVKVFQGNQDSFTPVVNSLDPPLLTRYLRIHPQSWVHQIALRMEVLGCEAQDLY
T1 sequence (P00451 1668-2351 limits assumed): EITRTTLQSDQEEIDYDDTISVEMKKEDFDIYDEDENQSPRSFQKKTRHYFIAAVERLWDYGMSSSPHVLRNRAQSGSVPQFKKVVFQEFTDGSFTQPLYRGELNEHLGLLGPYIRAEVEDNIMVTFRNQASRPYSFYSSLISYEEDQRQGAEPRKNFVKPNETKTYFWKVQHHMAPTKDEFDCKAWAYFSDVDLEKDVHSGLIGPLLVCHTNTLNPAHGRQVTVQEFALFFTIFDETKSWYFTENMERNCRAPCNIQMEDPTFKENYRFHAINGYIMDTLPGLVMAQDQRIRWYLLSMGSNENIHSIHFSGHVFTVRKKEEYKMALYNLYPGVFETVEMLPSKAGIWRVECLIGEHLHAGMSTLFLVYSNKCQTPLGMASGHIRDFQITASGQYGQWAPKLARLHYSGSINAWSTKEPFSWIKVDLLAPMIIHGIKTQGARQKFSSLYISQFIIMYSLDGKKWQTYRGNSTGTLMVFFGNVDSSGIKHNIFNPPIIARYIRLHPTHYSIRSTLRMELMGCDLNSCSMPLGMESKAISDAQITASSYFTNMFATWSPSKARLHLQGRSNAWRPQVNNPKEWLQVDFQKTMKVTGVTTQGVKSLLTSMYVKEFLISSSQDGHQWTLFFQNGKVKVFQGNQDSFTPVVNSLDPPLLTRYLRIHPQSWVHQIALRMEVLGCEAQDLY

Row | 0.5M CaCl2 IU [1] [IU] | 2% acetic acid % total [1] [%] | 2% acetic acid IU [1] [IU] | Flow through % total [1] [%] | Total IU [1] [IU] | Total dpm [2] [dpm] | 0.5M CaCl2 % total [2] [%] | 2% acetic acid % total [2] [%] | 2% acetic acid dpm [2] [dpm] | 0.5M CaCl2 dpm [2] [dpm] | beads % total [2] [%] | beads dpm [2] [dpm] | 0.5M CaCl2 ng [3] [ng] | 0.5M CaCl2 % total [3] [%] | 2% acetic acid % total [3] [%] | 2% acetic acid ng [3] [ng] | Flow through % total [3] [%] | Total ng [3] [ng] | Flow through ng [3] [ng] | ELISA results % total [3] [%] | Substance | further results
1 | 32.8 | 2 | 0.58 | 0 | 36.5 | 3162 | 85 | 12 | 368 | 2694 | 3 | 99 | 4961 | 88 | 1 | 61 | 10 | 5651 | 583 | 88 | 1 (KPNPLA) [compound 1] | 0.5M CaCl2 % total [1]: 90%; Flow through IU [1]: 0.03 IU; Activity results % total [1]: 90%
2 | 51.6 | 1 | 0.5 | 1 | 54.3 | 2767 | 86 | 12 | 322 | 2366 | 3 | 79 | 5745 | 92 | 0 | 31 | 7 | 6245 | 447 | 92 | 2 (RNPPNN) [compound 2] | 0.5M CaCl2 % total [1]: 95%; Flow through IU [1]: 0.4 IU; Activity results % total [1]: 95%
3 |  |  |  |  |  | 2020 | 74 | 19 | 379 | 1502 | 7 | 140 |  |  |  |  |  |  |  |  | 3 (YVQGLW) [compound 3] | 
4 |  |  |  |  |  | 3744 | 78 | 17 | 631 | 2905 | 6 | 209 | 5510 | 90 | 3 | 160 | 4 | 6123 | 225 | 90 | 4 (FRPHWA) [compound 4] | 
5 | 36.3 | 3 | 1.2 | 0 | 37.8 | 4091 | 86 | 10 | 430 | 3519 | 3 | 143 | 5530 | 97 | 2 | 125 | 0 | 5680 | 25 | 97 | 5 (LNWKYG) [compound 5] | 0.5M CaCl2 % total [1]: 96%; Flow through IU [1]: 0.0 IU; Activity results % total [1]: 96%
6 |  |  |  |  |  | 4098 | 86 | 9 | 377 | 3543 | 4 | 178 | 5449 | 97 | 0 | 10 | 2 | 5623 | 122 | 97 | 8 (RPRW) [compound 8] | 
7 |  |  |  |  |  | 2897 | 21 | 45 | 1302 | 608 | 34 | 986 | 338 | 9 | 71 | 2550 | 2 | 3615 | 56 |  | 16 (WRRHRY) [compound 16] | 
8 |  |  |  |  |  | 3009 | 17 | 72 | 2156 | 498 | 12 | 355 | 1622 | 37 | 54 | 2336 | 3 | 4348 | 127 |  | 17 (FYRFWN) [compound 17] | 
9 |  |  |  |  |  | 2608 | 25 | 67 | 1752 | 651 | 8 | 205 | 2362 | 56 | 18 | 760 | 0 | 4200 | 8 |  | 18 (WLWSHN) [compound 18] | 
10 |  |  |  |  |  | 274 | 80 | 15 | 41 | 219 | 5 | 14 | 201 | 4 | 0 | 10 | 95 | 4962 | 4719 |  | IGF [reference compound] | binding of rFVIII in words ([2]; plate format): non binder
